In US20210060169A1 one finds Standardized EC50 ratio value data, which are given here for one substance.

The experiment deals with human IL-2Rαβγ (human) (UniProt P01589). The experiment is described as follows: cell-based or functional assay.
Chain of human IL-2Rαβγ (human) (P01589 22-272, chain 1 of 3): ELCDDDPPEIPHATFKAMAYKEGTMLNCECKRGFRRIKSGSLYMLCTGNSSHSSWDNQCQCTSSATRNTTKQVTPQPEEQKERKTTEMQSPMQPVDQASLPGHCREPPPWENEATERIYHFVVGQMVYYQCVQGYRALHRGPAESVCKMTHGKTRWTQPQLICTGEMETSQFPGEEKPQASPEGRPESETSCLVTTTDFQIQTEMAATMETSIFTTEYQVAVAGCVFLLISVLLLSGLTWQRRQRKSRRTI
Chain of human IL-2Rαβγ (human) (P14784 27-551, chain 2 of 3, further chain): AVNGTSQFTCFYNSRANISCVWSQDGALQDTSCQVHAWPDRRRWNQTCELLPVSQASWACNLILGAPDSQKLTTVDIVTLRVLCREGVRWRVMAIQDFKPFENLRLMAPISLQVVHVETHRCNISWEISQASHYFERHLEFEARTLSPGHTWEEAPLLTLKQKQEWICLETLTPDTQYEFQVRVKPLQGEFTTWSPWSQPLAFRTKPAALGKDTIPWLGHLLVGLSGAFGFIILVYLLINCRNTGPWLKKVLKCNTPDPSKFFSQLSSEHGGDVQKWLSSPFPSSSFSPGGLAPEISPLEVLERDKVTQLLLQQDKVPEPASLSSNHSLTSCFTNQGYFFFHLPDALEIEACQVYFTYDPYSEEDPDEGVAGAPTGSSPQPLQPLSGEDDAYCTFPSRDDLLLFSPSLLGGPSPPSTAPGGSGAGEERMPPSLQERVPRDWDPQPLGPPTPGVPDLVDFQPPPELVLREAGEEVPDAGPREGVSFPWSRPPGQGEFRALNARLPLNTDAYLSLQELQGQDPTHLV
Chain of human IL-2Rαβγ (human) (P31785 23-369, chain 3 of 3, further chain): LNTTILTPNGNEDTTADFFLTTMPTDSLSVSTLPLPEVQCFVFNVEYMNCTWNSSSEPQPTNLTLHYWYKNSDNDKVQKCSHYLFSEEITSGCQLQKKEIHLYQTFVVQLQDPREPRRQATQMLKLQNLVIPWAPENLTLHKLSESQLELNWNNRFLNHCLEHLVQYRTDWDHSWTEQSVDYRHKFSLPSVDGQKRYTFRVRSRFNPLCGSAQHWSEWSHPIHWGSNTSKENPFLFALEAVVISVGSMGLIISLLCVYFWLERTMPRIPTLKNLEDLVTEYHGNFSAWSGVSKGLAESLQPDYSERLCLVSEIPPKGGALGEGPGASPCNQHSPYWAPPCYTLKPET

Chain of 8His-S4(oAzZK) (P60568 other isoform, or with tags, fused parts or gaps): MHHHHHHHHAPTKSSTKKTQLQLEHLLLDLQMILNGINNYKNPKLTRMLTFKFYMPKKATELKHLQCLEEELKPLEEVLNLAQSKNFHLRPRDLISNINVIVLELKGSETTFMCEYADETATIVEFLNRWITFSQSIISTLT

For the substance “8His-S4(oAzZK) (from UniProt P60568 25-153) (ligand)”, the Standardized EC50 ratio value is below 5.
